Molecular target: flag-TBC1D9B, full length, wild type (human, UniProt Q66K14-1 1-1250)
Test: co-IP

flag-TBC1D9B, full length, wild type, sequence (Q66K14 whole entry): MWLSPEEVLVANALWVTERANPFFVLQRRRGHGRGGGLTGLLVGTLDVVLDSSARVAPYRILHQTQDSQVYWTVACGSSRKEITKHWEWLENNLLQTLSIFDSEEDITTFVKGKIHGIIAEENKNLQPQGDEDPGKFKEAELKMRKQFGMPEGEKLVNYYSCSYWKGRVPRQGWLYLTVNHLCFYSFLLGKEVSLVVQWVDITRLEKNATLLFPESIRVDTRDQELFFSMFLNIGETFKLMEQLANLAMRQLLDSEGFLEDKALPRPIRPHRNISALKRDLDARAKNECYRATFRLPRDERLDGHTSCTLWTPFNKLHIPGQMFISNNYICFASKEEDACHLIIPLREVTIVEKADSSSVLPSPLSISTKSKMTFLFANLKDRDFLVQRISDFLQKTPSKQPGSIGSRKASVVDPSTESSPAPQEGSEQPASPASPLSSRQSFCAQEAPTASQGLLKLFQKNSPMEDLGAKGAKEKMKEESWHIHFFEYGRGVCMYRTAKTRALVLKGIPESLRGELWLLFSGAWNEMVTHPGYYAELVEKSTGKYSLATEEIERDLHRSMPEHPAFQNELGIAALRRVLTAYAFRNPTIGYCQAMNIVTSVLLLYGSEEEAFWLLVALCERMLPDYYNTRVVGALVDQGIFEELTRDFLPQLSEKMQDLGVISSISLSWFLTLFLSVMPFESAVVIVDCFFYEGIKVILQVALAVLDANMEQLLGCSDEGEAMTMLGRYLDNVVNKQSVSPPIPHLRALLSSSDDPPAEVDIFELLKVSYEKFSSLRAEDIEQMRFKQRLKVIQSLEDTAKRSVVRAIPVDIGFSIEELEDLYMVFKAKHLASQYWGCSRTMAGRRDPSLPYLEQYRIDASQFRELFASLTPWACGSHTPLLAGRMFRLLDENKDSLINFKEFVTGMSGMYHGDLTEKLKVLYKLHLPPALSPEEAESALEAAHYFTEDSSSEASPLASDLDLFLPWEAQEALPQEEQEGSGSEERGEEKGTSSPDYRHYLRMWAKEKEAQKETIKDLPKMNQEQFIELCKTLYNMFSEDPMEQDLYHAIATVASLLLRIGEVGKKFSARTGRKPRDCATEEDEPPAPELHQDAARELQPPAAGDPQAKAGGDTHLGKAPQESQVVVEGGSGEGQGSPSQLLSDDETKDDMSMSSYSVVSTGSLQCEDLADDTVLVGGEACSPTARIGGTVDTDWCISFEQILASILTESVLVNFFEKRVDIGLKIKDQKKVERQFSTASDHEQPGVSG

B1: GFP-Rab11aQ70L (natural protein, UniProt P62491 1-216, looked up)
chain: MGTRDDEYDYLFKVVLIGDSGVGKSNLLSRFTRNEFNLESKSTIGVEFATRSIQVDGKTIKAQIWDTAGLERYRAITSAYYRGAVGALLVYDIAKHLTYENVERWLKELRDHADSNIVIMLVGNKSDLRHLRAVPTDEARAFAEKNGLSFIETSALDSTNVEAAFQTILTEIYRIVSQKQMSDRRENDMSPSNNVVPIHVPPTTENKPKVQCCQNI
fold coimmunoprecipitated against Rab11a-WT or Rab11a-SN: ~5 fold
